T1: MBP-mTERF6.1 (without transit peptide) (Arabidopsis thaliana, UniProt Q9SZL6 25-333)
T1 sequence: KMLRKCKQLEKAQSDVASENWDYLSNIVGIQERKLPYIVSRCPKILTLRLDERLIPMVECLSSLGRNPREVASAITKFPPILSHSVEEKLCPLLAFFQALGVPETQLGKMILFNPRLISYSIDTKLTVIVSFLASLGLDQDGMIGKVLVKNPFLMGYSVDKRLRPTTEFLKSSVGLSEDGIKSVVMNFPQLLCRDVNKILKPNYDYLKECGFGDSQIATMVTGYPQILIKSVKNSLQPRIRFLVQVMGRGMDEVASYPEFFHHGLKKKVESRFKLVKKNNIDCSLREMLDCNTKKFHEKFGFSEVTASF

B1: probe A (rpoA 3'-end, 122 bp) (dsDNA)
DNA 1: AATTTCTATTTTCCAGTCGAACCCATTTTAATTAATTAATTAAATTAATTAGAATTAGATATGTATCTAGGGAGAATTCATTTGGAAATGACTACTCCCTAGATACCTCCCTAGATACCCAC
DNA 2: GTGGGTATCTAGGGAGGTATCTAGGGAGTAGTCATTTCCAAATGAATTCTCCCTAGATACATATCTAATTCTAATTAATTTAATTAATTAATTAAAATGGGTTCGACTGGAAAATAGAAATT
B2: probe B (22 nt, single strand) (ssDNA)
DNA: AATTTCTATTTTCCAGTCGAAC

Legend:
[1] = target: T1, MBP-mTERF6.1 (without transit peptide); test: EMSA; 5 mM MgCl2; shift greatly reduced by 200-fold unlabeled probe A; EMSA 20 uL: LightShift binding buffer, 5 mM MgCl2, 1 mM EDTA, 2.5% glycerol, 0.05% NP-40, 50 ng/uL poly(dI-dC), 20 fmol probe (printed 'fmal'), 0.5 ug protein; settings: protein: recombinant; tags: N-terminal MBP (pMAL-c5X); label: 5' biotin
[2] = target: T1, MBP-mTERF6.1 (without transit peptide); test: EMSA; 5 mM MgCl2; stronger shift than probe A; weakened by 1-, 2-, 8-fold competitor; EMSA 20 uL: LightShift binding buffer, 5 mM MgCl2, 1 mM EDTA, 2.5% glycerol, 0.05% NP-40, 50 ng/uL poly(dI-dC), 20 fmol probe (printed 'fmal'), 0.5 ug protein; settings: protein: recombinant; tags: N-terminal MBP (pMAL-c5X); label: 5' biotin

| Binder | binding result [1] | binding result [2] |
| --- | --- | --- |
| B1 | binds | – |
| B2 | – | binds |
